B1: EPB41L3 (parent)
chain: FRFAPNHTKELEDKVIELHKSHRG

Variants of: B1
Assay: protein stability index of a GFP-peptide fusion (GPS, HEK-293T) (PSI 1-6); higher = more stable
Settings: c terminus: a fixed tail appended
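Note: lentivirally expressed fusions sorted by FACS into six bins by GFP to DsRed ratio, PSI derived from sequencing read proportions per bin multiplied by bin number.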

**Q.** Which protein stability index does the source give for FRFAPNHTKELEDKVIENHKSHRG [L18N] here?
**A.** 2.01

**Q.** Which protein stability index does the source give for FRFAPNHTKELEDKVIETHKSHRG [L18T] here?
**A.** 3.79

**Q.** With FRFAPNHTKELEDKVIEEHKSHRG [L18E] as the variant, how does the protein stability index read?
**A.** 2.43

**Q.** With FRFAPNHTKELEDKVIEAHKSHRG [L18A] as the variant, how does the protein stability index read?
**A.** 3.07

**Q.** With FRFAPNHTKELVDKVIELHKSHRG [E12V] as the variant, how does the protein stability index read?
**A.** 1.45

**Q.** Which protein stability index does the source give for FRFAPNHTKELSDKVIELHKSHRG [E12S] here?
**A.** 2.41

**Q.** Which protein stability index does the source give for FRFAPNHTKELWDKVIELHKSHRG [E12W] here?
**A.** 2.97

**Q.** With FRFAPNHRKELEDKVIELHKSHRG [T8R] as the variant, how does the protein stability index read?
**A.** 1.92

**Q.** For FRFAPNHDKELEDKVIELHKSHRG [T8D], which protein stability index is on record?
**A.** 2.01

**Q.** With FRFAPNHHKELEDKVIELHKSHRG [T8H] as the variant, how does the protein stability index read?
**A.** 1.74

**Q.** With FRFAPNHAKELEDKVIELHKSHRG [T8A] as the variant, how does the protein stability index read?
**A.** 2.11

**Q.** For FRFAPNHLKELEDKVIELHKSHRG [T8L], which protein stability index is on record?
**A.** 1.82

**Q.** For FRFAPNHPKELEDKVIELHKSHRG [T8P], which protein stability index is on record?
**A.** 1.75

**Q.** With FRFAPNHTKELEDKKIELHKSHRG [V15K] as the variant, how does the protein stability index read?
**A.** 2.19

**Q.** With FRFAPNHTKELEDKQIELHKSHRG [V15Q] as the variant, how does the protein stability index read?
**A.** 2.54

**Q.** For FRFAPNHTKELEDKSIELHKSHRG [V15S], which protein stability index is on record?
**A.** 2.44

**Q.** Which protein stability index does the source give for FRFAPNHTKELEDKYIELHKSHRG [V15Y] here?
**A.** 1.99

**Q.** With FRFAPNHTKELEDKLIELHKSHRG [V15L] as the variant, how does the protein stability index read?
**A.** 2.69

**Q.** For FRFAPNHTKELENKVIELHKSHRG [D13N], which protein stability index is on record?
**A.** 2.79

**Q.** For FRFAPNHTKELEMKVIELHKSHRG [D13M], which protein stability index is on record?
**A.** 1.9

**Q.** With FRFAPNHTKELEHKVIELHKSHRG [D13H] as the variant, how does the protein stability index read?
**A.** 1.89

**Q.** Which protein stability index does the source give for FRFAPNHTKELEDKVIELHKRHRG [S21R] here?
**A.** 2.1

**Q.** For FRFAPNHTKELEDKVIELHKIHRG [S21I], which protein stability index is on record?
**A.** 2.25

**Q.** For FRCAPNHTKELEDKVIELHKSHRG [F3C], which protein stability index is on record?
**A.** 3.74

**Q.** Which protein stability index does the source give for FRNAPNHTKELEDKVIELHKSHRG [F3N] here?
**A.** 4.21

**Q.** Which protein stability index does the source give for FRMAPNHTKELEDKVIELHKSHRG [F3M] here?
**A.** 4.02

**Q.** For FRIAPNHTKELEDKVIELHKSHRG [F3I], which protein stability index is on record?
**A.** 3.86

**Q.** With NRFAPNHTKELEDKVIELHKSHRG [F1N] as the variant, how does the protein stability index read?
**A.** 3.62

**Q.** Which protein stability index does the source give for HRFAPNHTKELEDKVIELHKSHRG [F1H] here?
**A.** 4.62

**Q.** With SRFAPNHTKELEDKVIELHKSHRG [F1S] as the variant, how does the protein stability index read?
**A.** 4.58

**Q.** With MRFAPNHTKELEDKVIELHKSHRG [F1M] as the variant, how does the protein stability index read?
**A.** 3.68

**Q.** For FRFAPNHTKELEDKVIELHISHRG [K20I], which protein stability index is on record?
**A.** 2.12

**Q.** Which protein stability index does the source give for FRFAPNHTKELEDKVIELHKSHTG [R23T] here?
**A.** 2.07

**Q.** With FRFAPNHTKELEDKVIELHKSHQG [R23Q] as the variant, how does the protein stability index read?
**A.** 2.87

**Q.** With FRFAPNHTKELEDKVIELHKSHKG [R23K] as the variant, how does the protein stability index read?
**A.** 2.37

**Q.** With FRFAPNHTKELEDKVIELHKSHCG [R23C] as the variant, how does the protein stability index read?
**A.** 2.4

**Q.** Which protein stability index does the source give for FRFAPNHTEELEDKVIELHKSHRG [K9E] here?
**A.** 2.21

**Q.** With FRFAPNHTDELEDKVIELHKSHRG [K9D] as the variant, how does the protein stability index read?
**A.** 1.82

**Q.** Which protein stability index does the source give for FRFAPNHTCELEDKVIELHKSHRG [K9C] here?
**A.** 2.44

**Q.** With FRFPPNHTKELEDKVIELHKSHRG [A4P] as the variant, how does the protein stability index read?
**A.** 2.98

**Q.** Which protein stability index does the source give for FRFCPNHTKELEDKVIELHKSHRG [A4C] here?
**A.** 2.2

**Q.** Which protein stability index does the source give for FRFNPNHTKELEDKVIELHKSHRG [A4N] here?
**A.** 3.77

**Q.** Which protein stability index does the source give for FRFEPNHTKELEDKVIELHKSHRG [A4E] here?
**A.** 2.87

**Q.** For FRFAPVHTKELEDKVIELHKSHRG [N6V], which protein stability index is on record?
**A.** 1.53

**Q.** Which protein stability index does the source give for FRFAPKHTKELEDKVIELHKSHRG [N6K] here?
**A.** 1.92

**Q.** For FRFAPPHTKELEDKVIELHKSHRG [N6P], which protein stability index is on record?
**A.** 2.23

**Q.** Which protein stability index does the source give for FRFAPTHTKELEDKVIELHKSHRG [N6T] here?
**A.** 2.08

**Q.** For FRFAPRHTKELEDKVIELHKSHRG [N6R], which protein stability index is on record?
**A.** 2.03

**Q.** For FRFAPNHTKELEDKVIGLHKSHRG [E17G], which protein stability index is on record?
**A.** 1.76

**Q.** Which protein stability index does the source give for FRFAPNHTKELEDKVICLHKSHRG [E17C] here?
**A.** 1.95

**Q.** With FRFAPNYTKELEDKVIELHKSHRG [H7Y] as the variant, how does the protein stability index read?
**A.** 2.07

**Q.** Which protein stability index does the source give for FRFAPNDTKELEDKVIELHKSHRG [H7D] here?
**A.** 2.96

**Q.** With FRFAPNPTKELEDKVIELHKSHRG [H7P] as the variant, how does the protein stability index read?
**A.** 2.1

**Q.** For FRFAPNQTKELEDKVIELHKSHRG [H7Q], which protein stability index is on record?
**A.** 2.28

**Q.** For FRFAPNHTKELEDQVIELHKSHRG [K14Q], which protein stability index is on record?
**A.** 1.56

**Q.** For FRFAPNHTKELEDKVIELVKSHRG [H19V], which protein stability index is on record?
**A.** 1.89

**Q.** Which protein stability index does the source give for FRFAPNHTKELEDKVIELKKSHRG [H19K] here?
**A.** 1.99

**Q.** Which protein stability index does the source give for FRFAPNHTKELEDKVIELPKSHRG [H19P] here?
**A.** 2.72

**Q.** Which protein stability index does the source give for FRFAPNHTKELEDKVIELHKSHRD [G24D] here?
**A.** 1.75

**Q.** For FRFAPNHTKELEDKVIELHKSHRQ [G24Q], which protein stability index is on record?
**A.** 2.74

**Q.** For FGFAPNHTKELEDKVIELHKSHRG [R2G], which protein stability index is on record?
**A.** 3.94

**Q.** With FIFAPNHTKELEDKVIELHKSHRG [R2I] as the variant, how does the protein stability index read?
**A.** 2.03

**Q.** Which protein stability index does the source give for FYFAPNHTKELEDKVIELHKSHRG [R2Y] here?
**A.** 3.27

**Q.** For FNFAPNHTKELEDKVIELHKSHRG [R2N], which protein stability index is on record?
**A.** 3.96

**Q.** Which protein stability index does the source give for FQFAPNHTKELEDKVIELHKSHRG [R2Q] here?
**A.** 3.89

**Q.** Which protein stability index does the source give for FRFAPNHTKELEDKVIELHKSIRG [H22I] here?
**A.** 1.68

**Q.** Which protein stability index does the source give for FRFAPNHTKELEDKVIELHKSLRG [H22L] here?
**A.** 1.63

**Q.** For FRFAPNHTKELEDKVIELHKSARG [H22A], which protein stability index is on record?
**A.** 1.98

**Q.** With FRFAPNHTKELEDKVIELHKSRRG [H22R] as the variant, how does the protein stability index read?
**A.** 1.68

**Q.** For FRFAPNHTKELEDKVIELHKSQRG [H22Q], which protein stability index is on record?
**A.** 2.01

**Q.** With FRFAPNHTKELEDKVIELHKSKRG [H22K] as the variant, how does the protein stability index read?
**A.** 1.4

**Q.** For FRFADNHTKELEDKVIELHKSHRG [P5D], which protein stability index is on record?
**A.** 3.38

**Q.** Which protein stability index does the source give for FRFAYNHTKELEDKVIELHKSHRG [P5Y] here?
**A.** 1.24

**Q.** With FRFAVNHTKELEDKVIELHKSHRG [P5V] as the variant, how does the protein stability index read?
**A.** 2.37

**Q.** With FRFAANHTKELEDKVIELHKSHRG [P5A] as the variant, how does the protein stability index read?
**A.** 2.73

**Q.** For FRFAPNHTKEWEDKVIELHKSHRG [L11W], which protein stability index is on record?
**A.** 1.99

**Q.** Which protein stability index does the source give for FRFAPNHTKEPEDKVIELHKSHRG [L11P] here?
**A.** 1.87

**Q.** With FRFAPNHTKESEDKVIELHKSHRG [L11S] as the variant, how does the protein stability index read?
**A.** 1.72

**Q.** With FRFAPNHTKEIEDKVIELHKSHRG [L11I] as the variant, how does the protein stability index read?
**A.** 2.46

**Q.** Which protein stability index does the source give for FRFAPNHTKEDEDKVIELHKSHRG [L11D] here?
**A.** 2.53

**Q.** Which protein stability index does the source give for FRFAPNHTKEREDKVIELHKSHRG [L11R] here?
**A.** 1.92

**Q.** With FRFAPNHTKEEEDKVIELHKSHRG [L11E] as the variant, how does the protein stability index read?
**A.** 1.97

**Q.** Which protein stability index does the source give for FRFAPNHTKILEDKVIELHKSHRG [E10I] here?
**A.** 2.07

**Q.** For FRFAPNHTKALEDKVIELHKSHRG [E10A], which protein stability index is on record?
**A.** 1.97

**Q.** With FRFAPNHTKKLEDKVIELHKSHRG [E10K] as the variant, how does the protein stability index read?
**A.** 2.59

**Q.** With FRFAPNHTKDLEDKVIELHKSHRG [E10D] as the variant, how does the protein stability index read?
**A.** 1.9

**Q.** Which protein stability index does the source give for FRFAPNHTKFLEDKVIELHKSHRG [E10F] here?
**A.** 1.22

**Q.** With FRFAPNHTKRLEDKVIELHKSHRG [E10R] as the variant, how does the protein stability index read?
**A.** 1.95

**Q.** With FRFAPNHTKELEDKVCELHKSHRG [I16C] as the variant, how does the protein stability index read?
**A.** 2.14

**Q.** Which protein stability index does the source give for FRFAPNHTKELEDKVHELHKSHRG [I16H] here?
**A.** 2.09

**Q.** With FRFAPNHTKELEDKVEELHKSHRG [I16E] as the variant, how does the protein stability index read?
**A.** 2.95

**Q.** For FRFAPNHTKELEDKVWELHKSHRG [I16W], which protein stability index is on record?
**A.** 2.13

**Q.** Which protein stability index does the source give for FRFAPNHTKELEDKVGELHKSHRG [I16G] here?
**A.** 1.98

**Q.** With FRFAPNHTKELEDKVPELHKSHRG [I16P] as the variant, how does the protein stability index read?
**A.** 2.76

Reference: the supplement of paper PMC10567573
